Here are results for two substances from article PMC10858898.

Broadly, the koff is a measure of how fast the partners let go of each other.

Values joined by “and” are separate entries in the source; they are usually repeats but may differ in a detail not shown here. Equal entries are not always repeated.

The target of assay [1] is MprE7-TH1 chimeric proteusin peptide. The experiment in a line: NMR titration; unlabeled SrpI titrated into 42.1 µM 15N-MprE7-TH1, MprE7-TH1:SrpI molar ratios 1:0 to 1:1, FAD 1:1 with SrpI; 100 mM NaCl, 20 mM sodium phosphate pH 7.5, 10% D2O; 25 °C, 800 MHz; TITAN 2D lineshape analysis with a two-state binding model; apparent KD; fits of subsets of the seven residues.
Assay [2] has the same target. The experiment in a line: NMR titration; unlabeled SrpI titrated into 42.1 uM 15N-labeled MprE7-TH1, MprE7-TH1:SrpI molar ratios 1:0 to 1:1, FAD at 1:1 with SrpI; 100 mM NaCl, 20 mM sodium phosphate pH 7.5, 10% D2O, 25 °C; TITAN 2D lineshape analysis, two-state binding model; apparent.

For SrpI brominase (enzyme), the Kd in assay [1] is 21.9 µM and 36.9 µM and 22 µM.
Turning to “SrpI brominase (flavin-dependent RiPP halogenase) (enzyme)”, in assay [2], the Kd turned out to be 24.9 µM and the dissociation rate constant (koff) worked out at 3.7 s⁻¹.
